Assays:
[1] = Serum and bile measurements after tail vein infusion (ELISA); assay type: in vivo; settings: FcRn deficient mice vs wild-type, 24 hours after infusion
Procedure: Human IgG and rat albumin were administered via the tail vein to wild-type (WT) or FcRn deficient (−/−) mice 24 hours prior to the harvest of serum and bile. For serum and bile measurements, mice were euthanized before blood was removed via the heart and the bile was removed via the gallbladder. Concentration of IgG and albumin were measured by ELISA. Similar results were obtained from bile collected via common bile duct cannulation.
After 24 hours, blood/serum and gallbladder bile were removed as described in Example 1.

Balb/c mice = experiment: Mortality assay (1); assay type: in vivo; settings: 12 mg of acetaminophen; mice deficient in FcRn compared to wild-type Balb/c mice
Procedure: Wild-type Balb/c mice and Balb/c mice deficient in FcRn were administered 12 mg of acetaminophen. The dose administered is equivalent to 42 g in a 70 kg human (84 tabs of 500 mg extra strength Tylenol™ (acetaminophen)).

| Molecule | levels of rat albumin in the bile [1] | mortality (Balb/c mice) |
| --- | --- | --- |
| rat albumin: Rat serum albumin administered via the tail vein to mice | elevated levels |  |
| CC(=O)Nc1ccc(O)cc1 [acetaminophen] |  | decreased mortality |

— patent US8232067B2, “Disrupting FCRN-albumin interactions” (Brigham & Women's Hospital, Inc., priority 2009, dated 2012)
